Results from publication PMC6376029, “Diversity within the adenovirus fiber knob hypervariable loops influences primary receptor interactions” (Nature Communications, 2019).

Tests used:
[1] = target: Recombinant Human Desmoglein-2 Fc Chimera Protein (human) (UniProt Q14126); test: SPR; BIAcore 3000, CM5 chip, about 5000 RU of receptor amine-coupled; equilibrium binding analysis of HAdV-D26K (367 uM) and HAdV-B3K (3 uM as printed), 5x 1:3 serial dilutions; 1:1 Langmuir fit; 25 C, PBS, 30 ul/min
[2] = target: HAdV-D48 fiber-knob protein (human adenovirus D serotype 48); test: crystal structure; sitting-drop vapour diffusion, 18 C, protein about 7.5 mg/ml in 10 mM Tris pH 8.0, 30 mM NaCl; data at 100 K, Diamond I04
[3] = target: Recombinant Human CXADR Fc Chimera Protein (CAR) (human) (UniProt P78310); test: SPR; BIAcore 3000, CM5 chip, about 5000 RU of receptor (CD46, CAR or DSG2) amine-coupled; fiber-knob injected; single cycle kinetics, top concentration around 200 uM with four 1:3 dilutions; 25 C, PBS, 30 ul/min
[4] = target: HAdV-D26 fiber-knob protein (human adenovirus D serotype 26); test: crystal structure; sitting-drop vapour diffusion, 18 C, protein about 7.5 mg/ml in 10 mM Tris pH 8.0, 30 mM NaCl; data at 100 K, Diamond I04
[5] = target: Recombinant Human CD46 Protein (His Tag) (human) (UniProt P15529); test: SPR; BIAcore 3000, CM5 chip, about 5000 RU of receptor amine-coupled; equilibrium binding analysis of HAdV-D26K (367 uM) and HAdV-B3K (3 uM as printed), 5x 1:3 serial dilutions; 1:1 Langmuir fit; 25 C, PBS, 30 ul/min
[6] = target: T1, Recombinant Human CXADR Fc Chimera Protein (CAR) (human, UniProt P78310); test: SPR
T1 chain: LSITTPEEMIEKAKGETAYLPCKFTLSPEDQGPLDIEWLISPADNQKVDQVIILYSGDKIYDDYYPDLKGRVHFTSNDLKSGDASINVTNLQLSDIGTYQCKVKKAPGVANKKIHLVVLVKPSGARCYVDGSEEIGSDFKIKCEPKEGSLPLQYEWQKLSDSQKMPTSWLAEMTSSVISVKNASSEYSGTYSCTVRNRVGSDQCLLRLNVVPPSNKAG

[7] = target: T2, Recombinant Human CXADR Fc Chimera Protein (CAR) (human, UniProt P78310); test: SPR; BIAcore 3000, CM5 chip, about 5000 RU of receptor (CD46, CAR or DSG2) amine-coupled; fiber-knob injected; single cycle kinetics, top concentration around 200 uM with four 1:3 dilutions; 25 C, PBS, 30 ul/min; details: both partners purified
T2 construct: human Coxsackie and Adenovirus Receptor (CXADR) part of a commercial Fc chimera; Probably the extracellular domain fused to human IgG1 Fc (recalled); source: bought: R&D Systems
T2 sequence: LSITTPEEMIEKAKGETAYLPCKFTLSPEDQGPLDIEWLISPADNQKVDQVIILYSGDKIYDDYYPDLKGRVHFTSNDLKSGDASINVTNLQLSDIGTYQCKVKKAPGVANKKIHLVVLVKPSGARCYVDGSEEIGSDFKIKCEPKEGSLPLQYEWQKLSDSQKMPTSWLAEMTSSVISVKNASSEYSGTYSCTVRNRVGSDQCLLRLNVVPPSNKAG

[8] = target: T1, Recombinant Human CXADR Fc Chimera …; test: SPR
[9] = target: T3, Recombinant Human CD46 Protein (His Tag) (human, UniProt P15529 35-343); test: SPR
T3 chain: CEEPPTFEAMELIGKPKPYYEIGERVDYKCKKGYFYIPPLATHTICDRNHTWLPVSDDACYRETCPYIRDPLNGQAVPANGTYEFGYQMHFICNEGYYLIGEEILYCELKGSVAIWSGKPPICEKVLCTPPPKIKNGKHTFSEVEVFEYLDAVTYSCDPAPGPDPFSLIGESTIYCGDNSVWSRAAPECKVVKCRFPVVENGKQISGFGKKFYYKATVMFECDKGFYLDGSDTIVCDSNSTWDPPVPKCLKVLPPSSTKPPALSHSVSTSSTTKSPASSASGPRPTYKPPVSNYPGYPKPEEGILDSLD

[10] = target: T3, Recombinant Human CD46 Protein (His Tag); test: SPR

Chain of Recombinant Human Desmoglein-2 Fc Chimera Protein (human) (Q14126 50-609, stated change not applied): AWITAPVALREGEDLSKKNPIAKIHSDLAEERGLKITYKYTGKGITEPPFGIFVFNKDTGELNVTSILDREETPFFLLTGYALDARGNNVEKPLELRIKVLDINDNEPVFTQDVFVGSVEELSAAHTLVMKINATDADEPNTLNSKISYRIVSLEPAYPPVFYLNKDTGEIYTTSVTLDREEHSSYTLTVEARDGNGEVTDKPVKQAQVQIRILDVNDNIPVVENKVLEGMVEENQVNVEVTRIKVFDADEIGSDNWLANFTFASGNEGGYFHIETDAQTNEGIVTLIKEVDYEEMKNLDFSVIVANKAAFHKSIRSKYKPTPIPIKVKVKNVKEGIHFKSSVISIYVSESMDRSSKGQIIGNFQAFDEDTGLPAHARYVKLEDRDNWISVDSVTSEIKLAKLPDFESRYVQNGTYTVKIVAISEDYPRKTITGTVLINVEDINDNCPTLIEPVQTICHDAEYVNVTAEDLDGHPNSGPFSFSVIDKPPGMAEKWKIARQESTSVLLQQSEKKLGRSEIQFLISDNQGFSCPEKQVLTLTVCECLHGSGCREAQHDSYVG

For “HAdV-B3 fiber-knob protein (from UniProt P04501 1-319) (domain or fragment)”, the Kd [1] was 66.9 µM.

For “HAdV-D48 fiber-knob protein (domain or fragment)”, the stoichiometry N [2] was 3 and the fold higher affinity than HAdV-D26K [3] was 2 fold.

“HAdV-D26 fiber-knob protein (domain or fragment)” gave a stoichiometry N [4] of 3 and a fold weaker affinity (KD) than HAdV-B35K [5] of over 1500 fold.

B1: HAdV-C5 fiber-knob protein (domain or fragment)
chain: KNNDKLTLWTTPAPSPNCRLNAEKDAKLTLVLTKCGSQILATVSVLAVKGSLAPISGTVQSAHLIIRFDENGVLLNNSFLDPEYWNFRNGDLTEGTAYTNAVGFMPNLSAYPKSHGKTAKSNIVSQVYLNGDKTKPVTLTITLNGTQETGDTTPSAYSMSFSWDWSGHNYINEIFATSSYTFSYIAQE
notes: fiber-knob domain of the fiber protein (pIV) of human adenovirus species C serotype 5; Vector pQE-30 probably adds an N-terminal His6 tag (surmised); also called HAdV-C5K; HAdV-C5 fiber-knob domain
Work on B1 yielded a koff [6] of 0.0016 s⁻¹ and a Kd [7] of 0.76 nM.

B2: HAdV-D26 fiber-knob protein (domain or fragment)
chain: RRTLWTTPDTSPNCKMSTEKDSKLTLTLTKCGSQVLGNVSLLAVTGEYHQMTATTKKDVKISLLFDENGILLPSSSLSKDYWNYRSDDSIVSQKYNNAVPFMPNLTAYPKPSAQNAKNYSRTKIISNVYLGALTYQPVIITIAFNQETENGCAYSITFTFTWQKDYSAQQFDVTSFTFSYLTQE
With B2 the Kd [8] was 21 µM.

B3: HAdV-B35 fiber-knob protein (domain or fragment)
chain: TLWTGINPPPNCQIVENTNTNDGKLTLVLVKNGGLVNGYVSLVGVSDTVNQMFTQKTANIQLRLYFDSSGNLLTEESDLKIPLKNKSSTATSETVASSKAFMPSTTAYPFNTTTRDSENYIHGICYYMTSYDRSLFPLNISIMLNSRMISSNVAYAIQFEWNLNASESPESNIATLTTSPFFFSYITEDDN
Molecule B3 has a Kd [9] of 27 nM and a koff [10] of 0.032 s⁻¹.

B4: HAdV-D48 fiber-knob protein (domain or fragment)
chain: DKLTLWTTPDPSPNCKIDQDKDSKLTFVLTKCGSQILANMSLLVVKGKFSMINNKVNGTDDYKKFTIKLLFDEKGVLLKDSSLDKEYWNYRSNNNNVGSAYEEAVGFMPSTTAYPKPPTPPTNPTTPLEKSQAKNKYVSNVYLGGQAGNPVATTVSFNKETGCTYSITFDFAWNKTYENVQFDSSFLTFSYIAQE
With B4 the Kd [8] was 9.3 µM and the koff [6] was 0.0024 s⁻¹.
